Here are results for 19 molecules from patent publication US20140302063A1 (SECRETARY OF STATE FOR HEALTH, published 2014).

Broadly, the EC50 is the midpoint of the concentration-response curve. A higher EC50 goes with lower potency in that assay.

Where a chain is given by its changes, count along the chain named.

Assay [1] concerns the target A/Brisbane/59/2007 (H1N1-like) inactivated viral preparation (Influenza A virus A/Brisbane/59/2007 (H1N1-like)). The assay can be described thus: ELISA, inactivated virus.
In assay [2] the target is A/California/7/2009 (H1N1) inactivated viral preparation (Influenza A virus A/California/7/2009 (H1N1)). The assay can be described thus: ELISA, inactivated virus. A general note: In an ELISA, binding on a coated surface is turned into a signal by an enzyme label.

B1: R2b-D8 (VHH)
VHH: QVQLVESGGGLVQPGGSLRLSCAASGFTFSWYDVGWYRRAPGKERELVADIASTRGTTNYADSVKGRFTISRDNAKNSVYLQMNSLKPEDTAVYYCNTRRDWRDYWGQGIQVTVSS
B1 gave an EC50 in assay [1] of 14.8 µg/mL.

B2: R2b-E8 (VHH)
VHH: QVQLVESGGGLVQPGGSLRLSCAASGSFFSRYRMGWYRQAPGEQRELVAGITYDDSTNYAGSVKGRFTISRDNAKNTVHLQMNSLKPEDTAVYYCNLNPPGNLYWGQGTQVTVSS
As to B2, the figures for the concentration giving a half-maximal response (EC50) in assay [2] and in assay [1] were 3.64 µg/mL and 18.4 µg/mL, respectively.

B3: R1a-E6 (VHH)
VHH: QVQLVESGGGLVQPGGSLRLSCAASGFTLGAYAIAWFRQAPGKEREGVSCISPSDSFTEYGDSVKGRFTVSRDNAKNTVYLQMNSLQPEDTAVYYCAADPVCTAGWYRPSRFDLWGQGTQVTVSS
As to B3, the EC50 in assay [2] amounted to 2.46 µg/mL.

B4: R2a-B9 (VHH)
VHH: QVQLVESGGGLVQPGGSLRLSCAASGSAFSINAMGWYRQAPGEEREFVAAITAGGNTYYADSAKARFTISRDNAKNMLYLQMNSLKPEDTAMYYCAATKAFGIATITADYELWGQGTQVTVSS
For B4, the EC50 stood at 1 µg/mL in assay [2] and 9.84 µg/mL in assay [1].

B5: R1a-E5 (VHH)
VHH: QLQLVESGGGLVQPGGSLRLSCTASGFSLDNYAIGWFRRAPGEEREGVSFITSTSAVTKYADSVKGRFTISRDNAKNTVYLQMTSLKPEDTAVYYCAGTRWVPTMKADEYNYWGQGTQVTVSS
B5: the EC50 in assay [2] amounted to 3.23 µg/mL.

B6: R2a-G9 (VHH)
VHH: QVQLVESGGGLVQPGGSLRLSCAASDNIFSFYTMGWYRQSPGKERELVAVIGNGGNTNYADSVKGRFTISRDNGKNKAHLQMNSLKPEDTAVYYCKASGPGGVEVWGQGTQVTVSS
In assay [2], B6 came in with a half-maximal effective concentration (EC50) of 0.3 µg/mL.

B7: R2a-E8 (VHH)
VHH: QLQLVESGGGLVQPGGSLRLSCTASGDIFVMYMIDWYRQAPGKQRELVASIDGRGTPMYADSVKGRFTISRDNAKNTVYLQMNSLKPEDTAVYSCHAKSPLVDNEYWGQGTQVTVSS
On to B7, for which the EC50 in assay [2] worked out at 0.51 µg/mL; in assay [1] it was 1.42 µg/mL.

B8: R1a-G6 (VHH)
VHH: QVQLVESGGGLVQSGGSLRLSCAASGSMSRIITMGWYRQAPGMERELVAVIGNNDNTVYGDSVQGRFTVSRDNAKNTAYLQMNSLNAEDTAMYYCKISTLTPPHEYWGQGTQVTVSS
Turning to B8, the concentration giving a half-maximal response (EC50) in assay [2] came out at 0.3 µg/mL.

B9: R2a-H9 (VHH)
VHH: QVQLVESGGGLVQPGGSLRLSCAASTNIASFYTMGWYRQTPGQQRDVVAVIGNGGNTNYADSVKGRFTISRDGAKNTAHLQMNSLKPEDTDVYYCKASGPGGVILWGQGTQVTVSS
B9 registered an EC50 in assay [2] of 0.97 µg/mL.

B10: R2b-D9 (VHH)
VHH: QVQLVESGGGLVQPGGSLRLSCLASGSAFSLYTMGWYRQAPGNQRELVAAITSGESTNYADSVKGRFTISRDNAKNTVYLQMNSLKPEDTAVYYCNADPLSTGWGQYSYWGQGTQVTVSS
As for B10, the EC50 in assay [2] worked out at 0.9 µg/mL; in assay [1] it was 0.8 µg/mL.

B11: R2a-F9 (VHH)
VHH: QVQLVESGGGLVQPGGSLRLSCSASGSISSIVTMGWYRQAPGKERELVAVIGNYGNTNYADSVKGRFTVSRDNAKNTVYLQMNSLNVEDTAMYVCKFSSTVAPHEYWGQGTQVTVSS
B11 showed an EC50 in assay [2] of 0.19 µg/mL.

B12: R2a-G8 (VHH)
VHH: QLQLAESGGGLVQAGGSLRLSCAASGSTLNNNAIGWFRQAPGKEREGVSCMNSRDGTTNYADSVKGRFTISRDVAKNTVYLQMNSLKPEDTAVYFCAVKGFAPFLIGCPWGKAEYDYWGQGTQVTVSS
For the molecule B12, the concentration for a half-maximal effect (EC50) in assay [2] turned out to be 4.11 µg/mL; in assay [1], 1.86 µg/mL.

B13: R1a-H6 (VHH)
VHH: QVQLVESGGGLVQAGDSLRLSCTASVLTFSLYRVGWFRQAPGKEREFVAAIDWGDGPTTYADSVKGRFTISRDNAERTAYLQINSLKPEDTAVYYCGAGNTGSSDRSSSYVHWGQGTQVTVSS
In the case of B13, the concentration giving a half-maximal response (EC50) in assay [2] worked out at 3.85 µg/mL.

B14: R1a-F5 (VHH)
VHH: QLQLVESGGGLVQVGGSLRLSCAASGFPFDGYAIAWFRQAPGKEREGVSCRASDGNTYYAESLKGRLTMSTDNAKNTVYLQMNSLKPEDTAVYYCAAASWVASLWSPSEYDYWGQGTQVTVSS
In the case of B14, the EC50 in assay [2] worked out at 0.55 µg/mL; in assay [1], 0.7 µg/mL.

B15: R1a-A5 (VHH)
VHH: QVQLVESGGGLVQPGGSLRLSCSASGSAVLFSTYPMSWYRQAPGKQRELVAAVTTDGSTSYADYAKGRFTISRDNAKNTVYLQMNSLKPEDTAVYYCNARDGFFNRYDYWGQGTQVTVSS
On to B15, for which the results for the concentration for a half-maximal effect (EC50) in assay [2] and in assay [1] were 0.31 µg/mL and 0.38 µg/mL, respectively.

B16: R1a-B6 (VHH)
VHH: QVQLVESGGGLVQPGGSLRLSCAASGSFFSRYRMGWYRQAPGEQRELVASIAYDGSTSYADPVKGRFTISRDNANTVHLQMYSLKPDDTAVYYCNLDPPGILYWGQGTQVTVSS
With B16, the figures for the EC50 in assay [2] and in assay [1] were 0.39 µg/mL and 0.58 µg/mL, respectively.

B17: R1a-C5 (VHH)
VHH: QVQLVESGGGLVQPGGSLRLSCAASNDIFSFYTMGWYLQAIGKQREPVAVIGNGGNTNYAESVKGRFTISRDGAKNTAYLQMNSLKPEDTAVYYCMASGPGGLNVWGQGTQVTVSS
In the case of B17, the results for the EC50 in assay [2] and in assay [1] were 1.71 µg/mL and 3.3 µg/mL, respectively.

B18: R1a-G5 (VHH)
VHH: QLQLVESGGGLVQPGGSLRLSCAASGSISRIVTMGWYRQASGKERELVAVIGNYGNTNYADSVKGRFTVSRDNAKDTAYLQMNGLNVEDTAIYYCKTSTTTPPYEYWGQGTQVTVSS
B18: the concentration for a half-maximal effect (EC50) in assay [2] was determined as 1.73 µg/mL; in assay [1] it was 0.29 µg/mL.

B19: R1a-F4 (VHH)
VHH: B18 VHH with L2V, A40G, S41P, G84N, I92M, T97C, Y104H, Y106F
In assay [2], B19 came in with a concentration for a half-maximal effect (EC50) of 0.79 µg/mL.
